Assay results from patent publication US20180371107A1 (published 2018).
Where a chain is given by its changes, count along the chain named.

B1: anti-NSP4 antibody 5-2 (antibody, human IgG1, V domains shown)
VH: EVQLVESGGGLVQPGGSLRLSCAASGFTFSNTYISWVRQAPGKGLEWVGFIYPANGATYYADSVKGRFTISADTSKNTAYLQMNSLRAEDTAVYYCARRYRLSFDYWGQGTLVTVSS
VL: DIQMTQSPSSLSASVGDRVTITCRASQDVSTAVAWYQQKPGKAPKLLIYSASFLYSGVPSRFSGSGSGTDFTLTISSLQPEDFATYYCQQSYTTPPTFGQGTKVEIKR
notes: also called Ab 5-2
B2: affinity matured anti-NSP4 antibody clone 51.72 (Fab, V domains shown)
VH: EVQLVESGGGLVQPGGSLRLSCAASGFTFSGSGIHWVRQAPGKGLEWVAWISPTGGNTYYADSVKGRFTISADTSKNTAYLQMNSLRAEDTAVYYCAKSLFHNVAFDYWGQGTLVTVSS
VL: B1 VL with T94A
B3: affinity matured anti-NSP4 antibody clone 51.50 (Fab, V domains shown)
VH: B2 VH
VL: B1 VL with S91A, Y92N, T93S
B4: affinity matured anti-NSP4 antibody clone 51.51 (Fab, V domains shown)
VH: B2 VH with K98R, S99G
VL: B1 VL with T94A
B5: affinity matured anti-NSP4 antibody clone 51.82 (Fab, V domains shown)
VH: B2 VH with K98R, S99G
VL: B1 VL with S91T, T93N, T94A
B6: affinity matured anti-NSP4 antibody clone 51.30 (Fab, V domains shown)
VH: B2 VH with S52P, P53T, T54A
VL: B1 VL with T94A
B7: anti-NSP4 antibody 4-4 (antibody, V domains shown)
VH: EVQLVESGGGLVQPGGSLRLSCAASGFTFTSTSIHWVRQAPGKGLEWVAEITPHGGYTNYADSVKGRFTISADTSKNTAYLQMNSLRAEDTAVYYCARGRTKWGWLYGMDYWGQGTLVTVSS
VL: B1 VL
B8: anti-NSP4 antibody 2-4 (antibody, V domains shown)
VH: EVQLVESGGGLVQPGGSLRLSCAASGFTFSDYWISWVRQAPGKGLEWVAGISPNNGDTYYADSVKGRFTISADTSKNTAYLQMNSLRAEDTAVYYCAREDDDERDYAMDYWGQGTLVTVSS
VL: B1 VL
B9: anti-NSP4 antibody 4-2 (antibody, V domains shown)
VH: EVQLVESGGGLVQPGGSLRLSCAASGFTFSGSDISWVRQAPGKGLEWVGEIYPSNGDTYYADSVKGRFTISADTSKNTAYLQMNSLRAEDTAVYYCARSVRPSWWAMDYWGQGTLVTVSS
VL: B1 VL
B10: anti-NSP4 antibody 2-5 (antibody, V domains shown)
VH: EVQLVESGGGLVQPGGSLRLSCAASGFTFTGYGISWVRQAPGKGLEWVGWIYPASGATYYADSVKGRFTISADTSKNTAYLQMNSLRAEDTAVYYCARHRAFDWYPYYIGSSVMDYWGQGTLVTVSS
VL: B1 VL
B11: anti-NSP4 antibody 2-1 (antibody, V domains shown)
VH: EVQLVESGGGLVQPGGSLRLSCAASGFTFTDYSIHWVRQAPGKGLEWVAEIYPYSGDTYYADSVKGRFTISADTSKNTAYLQMNSLRAEDTAVYYCARDGDGWFDWAMDYWGQGTLVTVSS
VL: B1 VL
B12: anti-NSP4 antibody 2-3 (antibody, V domains shown)
VH: EVQLVESGGGLVQPGGSLRLSCAASGFTFTDSDISWVRQAPGKGLEWVAWISPSDGATDYADSVKGRFTISADTSKNTAYLQMNSLRAEDTAVYYCAHEASDDDYAIDYWGQGTLVTVSS
VL: B1 VL
B13: anti-NSP4 antibody 2-2 (antibody, V domains shown)
VH: EVQLVESGGGLVQPGGSLRLSCAASGFTFSSTAISWVRQAPGKGLEWVGEIYPSDGYTDYADSVKGRFTISADTSKNTAYLQMNSLRAEDTAVYYCARVKWAVSSLGVMDYWGQGTLVTVSS
VL: B1 VL
B14: affinity matured anti-NSP4 antibody clone 35.14 (Fab, V domains shown)
VH: EVQLVESGGGLVQPGGSLRLSCAASGFTFSDNDISWVRQAPGKGLEWVGSISPDNGDTNYADSVKGRFTISADTSKNTAYLQMNSLRAEDTAVYYCARDDVPAVFTSAMDYWGQGTLVTVSS
VL: B1 VL with T93G, T94F, P96L
B15: affinity matured anti-NSP4 antibody clone 35.62 (Fab, V domains shown)
VH: B14 VH
VL: B1 VL with Y92A, T93G, T94F, P96L
B16: affinity matured anti-NSP4 antibody clone 35.50 (Fab, V domains shown)
VH: B14 VH
VL: B1 VL with T93D, T94F, P96L
B17: affinity matured anti-NSP4 antibody clone 35.77 (Fab, V domains shown)
VH: B2 VH with S99R, L100H, F101L
VL: B1 VL with S91A, T93S, T94A
B18: anti-NSP4 antibody 1-2 (antibody, V domains shown)
VH: EVQLVESGGGLVQPGGSLRLSCAASGFTFSGYSIHWVRQAPGKGLEWVAGISPTNGYTDYADSVKGRFTISADTSKNTAYLQMNSLRAEDTAVYYCARLVFYRGVMDYWGQGTLVTVSS
VL: B1 VL
B19: anti-NSP4 antibody 4-3 (antibody, V domains shown)
VH: EVQLVESGGGLVQPGGSLRLSCAASGFTFSSYDISWVRQAPGKGLEWVGTISPYDGYTDYADSVKGRFTISADTSKNTAYLQMNSLRAEDTAVYYCARYIRRYSVHYGMDYWGQGTLVTVSS
VL: B1 VL
B20: anti-NSP4 antibody 1-1 (antibody, V domains shown)
VH: EVQLVESGGGLVQPGGSLRLSCAASGFTFSGSWISWVRQAPGKGLEWVGTISPYNGSTYYADSVKGRFTISADTSKNTAYLQMNSLRAEDTAVYYCARVLRPKVYASVMDYWGQGTLVTVSS
VL: B1 VL
B21: anti-NSP4 antibody 1-5 (antibody, V domains shown)
VH: EVQLVESGGGLVQPGGSLRLSCAASGFTFTNNSISWVRQAPGKGLEWVGAISPNNGSTYYADSVKGRFTISADTSKNTAYLQMNSLRAEDTAVYYCARNAWHYSWVGVMDYWGQGTLVTVSS
VL: B1 VL
B22: anti-NSP4 antibody 1-3 (antibody, V domains shown)
VH: EVQLVESGGGLVQPGGSLRLSCAASGFTFSDNWISWVRQAPGKGLEWVGYIYPASGYTDYADSVKGRFTISADTSKNTAYLQMNSLRAEDTAVYYCASDSPHAYWYAMDYWGQGTLVTVSS
VL: B1 VL

Molecular target: T1, mouse active NSP4 (mA-NSP4) (mouse, UniProt Q14B24 40-284)
T1 construct: mature; Made from mZ by enteropeptidase cleavage; also called mature form of mouse NSP4
T1 sequence (looked up): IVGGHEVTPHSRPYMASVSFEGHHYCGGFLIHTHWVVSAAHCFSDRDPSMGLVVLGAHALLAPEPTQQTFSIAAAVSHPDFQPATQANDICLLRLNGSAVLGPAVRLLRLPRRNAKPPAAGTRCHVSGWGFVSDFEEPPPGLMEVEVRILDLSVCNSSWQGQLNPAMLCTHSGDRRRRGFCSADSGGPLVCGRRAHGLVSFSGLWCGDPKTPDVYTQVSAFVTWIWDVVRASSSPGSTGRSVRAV
Assay: competition phage ELISA (phage IC50): phage clone preincubated with soluble mA-NSP4, then on NSP4-coated wells
Description: Phage at sub-saturating concentrations were first incubated with increasing concentrations of target NSP4 antigen (either hZ, hA, mZ, or mA) for 1 to 2 hour(s), and then transferred to wells coated with the same NSP4 antigen to capture the unbound phage.
Briefly, 2 ug/ml of NSP4 (hZ, hA, mZ, or mA variants) was coated on wells overnight at 4° C. in PBS supplemented with 0.5% BSA. Each individual phage clone (at 0.01 OD/ml) was purified and incubated with increasing concentrations of soluble NSP4 protein for 2 h at room temperature before being placed into wells coated with immobilized NSP4 protein for 15 min at room temperature. The wells were then washed with PBS supplemented with 0.05% Tween-20 for 10 times and developed using anti-M13 phage antibody conjugated with HRP (New England Biolabs). […] The soluble phage:antigen complex, with higher likelihood to be high-affinity phage clones, would thus be removed through successive washing steps, resulting in lower A450 signal at any given concentration of soluble antigen. Consequently, higher affinity phage clones would have a lower phage IC50 value, with a concomitant leftward-shift in the binding curves, compared to lower affinity phage clones.

Binder	IC50
B1	25 nM

Molecular target: T2, mouse NSP4 (mNSP4), form not stated in Example 6 (mouse, UniProt Q14B24 40-284, limits assumed)
T2 construct: also called recombinant mouse NSP4; purified mouse NSP4
T2 sequence (looked up): T1 sequence (looked up)
Assay: ratio of phage IC50 against the parental clone 51.WT

Binder	Affinity improvement to mNSP4
B2	49.8 fold
B3	178 fold
B4	63 fold
B5	505 fold
B6	161 fold

Molecular target: T3, human active NSP4 (hA-NSP4) (human, UniProt Q6UWY2 34-283)
T3 construct: range 34-283; Insect-cell material of the same construct was used for the crystal structures; also called mature form of human NSP4
T3 sequence (looked up): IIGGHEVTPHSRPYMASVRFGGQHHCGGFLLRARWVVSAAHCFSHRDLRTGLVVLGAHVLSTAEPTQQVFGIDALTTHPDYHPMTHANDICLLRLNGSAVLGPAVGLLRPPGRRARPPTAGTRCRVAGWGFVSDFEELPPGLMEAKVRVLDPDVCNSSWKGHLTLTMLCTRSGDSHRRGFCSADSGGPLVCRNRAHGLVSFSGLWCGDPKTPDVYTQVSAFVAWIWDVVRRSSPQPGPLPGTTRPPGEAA
Assay: competition phage ELISA (phage IC50): phage clone preincubated with soluble hA-NSP4, then on NSP4-coated wells

Binder	IC50
B7	1.48 nM
B8	1.63 nM
B9	84.8 nM
B10	5130 nM
B11	3.81 nM
B12	4.96 nM
B13	10.1 nM

Molecular target: T4, human NSP4 (hNSP4), form not stated in Example 6 (human, UniProt Q6UWY2 34-283, limits assumed)
T4 sequence (looked up): T3 sequence (looked up)
Assay: phage competition binding assay (phage IC50), soluble hNSP4 competitor

Binder	IC50
B14	23.4 nM
B15	25.7 nM
B16	22.8 nM

Molecular target: T2, mouse NSP4 (mNSP4), form not stated in …
Assay: phage competition binding assay (phage IC50), soluble mNSP4 competitor

Binder	IC50
B2	0.375 nM
B14	0.048 nM
B3	0.105 nM
B15	0.206 nM
B4	0.296 nM
B17	0.064 nM
B5	0.037 nM
B6	0.116 nM
B16	0.075 nM

Molecular target: T2, mouse NSP4 (mNSP4), form not stated in …
Assay: ratio of phage IC50 against the parental clone 35.WT

Binder	Affinity improvement to mNSP4
B14	2.7 fold
B15	0.6 fold
B17	2 fold
B16	1.7 fold

Molecular target: T5, mouse zymogen NSP4 (mZ-NSP4) (mouse, UniProt Q14B24 36-284)
T5 chain: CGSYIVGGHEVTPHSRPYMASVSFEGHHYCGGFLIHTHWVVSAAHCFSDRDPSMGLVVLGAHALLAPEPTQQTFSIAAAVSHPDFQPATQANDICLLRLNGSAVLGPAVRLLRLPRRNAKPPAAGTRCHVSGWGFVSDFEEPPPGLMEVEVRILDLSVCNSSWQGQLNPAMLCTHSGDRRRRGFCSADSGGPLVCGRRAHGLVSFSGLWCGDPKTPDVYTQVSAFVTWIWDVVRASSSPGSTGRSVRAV
Assay: BLI; no affinity

Binder	Kd
B7	> 1000 nM
B9	> 1000 nM
B18	> 1000 nM
B19	> 1000 nM
B20	> 1000 nM
B21	> 1000 nM
B22	> 1000 nM

Molecular target: T6, mouse active NSP4 (mA-NSP4) (mouse, UniProt Q14B24 40-284)
T6 chain: T1 sequence (looked up)
Assay: BLI; no affinity

Binder	Kd
B7	> 1000 nM
B9	> 1000 nM
B18	> 1000 nM
B10	> 1000 nM
B19	> 1000 nM
B20	> 1000 nM
B21	> 1000 nM
B22	> 1000 nM
B13	> 1000 nM
